In paper PMC3530171 (Cell, 2012):

Biological target: recombinant His-Mdm2 (UniProt P23804 1-489)
Assay: pull-down

Sequence of recombinant His-Mdm2 (P23804 whole entry): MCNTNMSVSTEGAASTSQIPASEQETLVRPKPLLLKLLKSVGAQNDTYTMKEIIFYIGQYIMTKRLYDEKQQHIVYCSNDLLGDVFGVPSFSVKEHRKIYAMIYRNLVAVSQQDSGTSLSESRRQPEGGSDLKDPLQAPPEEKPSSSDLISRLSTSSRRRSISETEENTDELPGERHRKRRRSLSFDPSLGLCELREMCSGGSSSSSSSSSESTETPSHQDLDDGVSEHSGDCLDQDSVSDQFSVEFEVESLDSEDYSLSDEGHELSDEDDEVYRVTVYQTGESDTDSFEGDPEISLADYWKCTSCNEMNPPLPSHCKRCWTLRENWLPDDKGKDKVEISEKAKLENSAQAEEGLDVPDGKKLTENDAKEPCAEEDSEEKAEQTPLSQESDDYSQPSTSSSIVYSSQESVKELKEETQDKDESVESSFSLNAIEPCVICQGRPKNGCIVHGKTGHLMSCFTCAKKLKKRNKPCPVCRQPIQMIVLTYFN

stoichiometry N: ~1
B1: recombinant GST-EF1α (natural protein)
chain: GKEKTHINIVVIGHVDSGKSTTTGHLIYKCGGIDKRTIEKFEKEAAEMGKGSFKYAWVLDKLKAERERGITIDISLWKFETSKYYVTIIDAPGHRDFIKNMITGTSQADCAVLIVAAGVGEFEAGISKNGQTREHALLAYTLGVKQLIVGVNKMDSTEPPYSQKRYEEIVKEVSTYIKKIGYNPDTVAFVPISGWNGDNMLEPSANMPWFKGWKVTRKDGNASGTTLLEALDCILPPTRPTDKPLRLPLQDVYKIGGIGTVPVGRVETGVLKPGMVVTFAPVNVTTEVKSVEMHHEALSEALPGDNVGFNVKNVSVKDVRRGNVAGDSKNDPPMEAAGFTAQVIILNHPGQISAGYAPVLDCHTAHIACKFAELKEKIDRRSGKKLEDGPKFLKSGDAAIVDMVPGKPMCVESFSDYPPLGRFAVRDMRQTVAVGVIKAVDKKAAGAGKVTKSAQKAQKAK
